Source: patent publication US20260250418A1 (BIOCYTOGEN PHARMACEUTICALS BEIJING, published 2026)
Where a chain is given by its changes, count along the chain named.

T1: His-tagged dog HER3 protein (dHER3, SEQ ID NO: 45) (dog, UniProt P21860 20-642 (human entry))
T1 construct: not shown: His tag
T1 chain: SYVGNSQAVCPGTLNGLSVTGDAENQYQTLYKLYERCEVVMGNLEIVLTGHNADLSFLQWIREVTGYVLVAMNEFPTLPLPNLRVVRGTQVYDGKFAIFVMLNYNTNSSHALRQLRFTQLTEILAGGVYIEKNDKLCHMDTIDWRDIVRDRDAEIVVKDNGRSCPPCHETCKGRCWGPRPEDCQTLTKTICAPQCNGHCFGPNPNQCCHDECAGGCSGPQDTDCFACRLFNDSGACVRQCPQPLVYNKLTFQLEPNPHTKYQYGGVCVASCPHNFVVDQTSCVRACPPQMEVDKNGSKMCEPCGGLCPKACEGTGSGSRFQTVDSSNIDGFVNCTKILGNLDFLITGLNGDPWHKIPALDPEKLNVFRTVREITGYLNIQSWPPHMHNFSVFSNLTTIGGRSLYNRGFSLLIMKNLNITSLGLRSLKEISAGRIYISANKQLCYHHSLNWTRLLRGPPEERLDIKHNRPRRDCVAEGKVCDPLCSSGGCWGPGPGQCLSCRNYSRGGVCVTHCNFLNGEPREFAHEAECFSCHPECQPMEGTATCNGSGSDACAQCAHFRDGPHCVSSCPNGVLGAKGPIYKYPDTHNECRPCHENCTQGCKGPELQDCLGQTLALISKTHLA

T2: monkey (Macaca fascicularis) HER3 on CHO-fasHER3 cells (monkey (Macaca fascicularis), UniProt P21860 20-643 (human entry))
T2 construct: CHO-S cells transfected with fasHER3
T2 chain: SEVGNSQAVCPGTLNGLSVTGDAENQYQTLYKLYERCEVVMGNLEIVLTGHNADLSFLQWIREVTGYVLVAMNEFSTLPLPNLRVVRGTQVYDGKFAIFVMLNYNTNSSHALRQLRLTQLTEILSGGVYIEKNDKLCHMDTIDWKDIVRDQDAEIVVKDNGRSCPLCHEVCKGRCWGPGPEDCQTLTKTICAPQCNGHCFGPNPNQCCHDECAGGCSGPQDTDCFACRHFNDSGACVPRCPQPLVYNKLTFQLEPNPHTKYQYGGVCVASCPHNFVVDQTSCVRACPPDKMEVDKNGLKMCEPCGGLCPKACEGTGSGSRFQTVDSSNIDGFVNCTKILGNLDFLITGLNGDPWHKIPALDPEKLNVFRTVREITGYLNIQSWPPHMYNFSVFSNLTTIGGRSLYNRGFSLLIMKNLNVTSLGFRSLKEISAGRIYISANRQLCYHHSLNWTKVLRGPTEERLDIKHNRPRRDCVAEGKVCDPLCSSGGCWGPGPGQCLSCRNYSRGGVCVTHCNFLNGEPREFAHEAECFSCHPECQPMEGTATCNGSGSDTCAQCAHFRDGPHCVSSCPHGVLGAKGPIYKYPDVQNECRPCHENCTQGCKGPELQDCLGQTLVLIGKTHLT

B1: anti-HER3 antibody 3G6 (antibody, V domains shown)
VH: QVQLVQSGPVLVKPTETLTLTCTVSGFSLSNIRMGVSWIRQPPGKALEWLAHIFSNDDKSYSTSLKSRLTISKDTSKSQVVLTMTNVDPVDTATYYCTRMRYSGGPFDYWGQGTLVTVSS
VL: not shown
notes: common light chain
B2: anti-HER3 antibody 1B2 (antibody, V domains shown)
VH: B1 VH with G26T, I32A, T63P, S78T, V87M, T98S, T114S
VL: not shown
notes: common light chain
B3: anti-HER3 antibody 3E1 (antibody, V domains shown)
VH: B1 VH with Q1E, V12A, T63P, S67N, N86T, V87M, V90M, R101K
VL: not shown
notes: common light chain
B4: anti-HER3 antibody 1C5 (antibody, V domains shown)
VH: QVQLVESGGGVVQPGKSLRLSCAASGFTFSRSGMHWVRQAPGKGLEWVALISFDGSNKYYADSVKGRFTISRDNSKNTLNLQMNSLRAEDTAVYYCAKGGFGVVIYDAFDIWGHGTMVTVSS
VL: not shown
notes: common light chain

Experiments:
[1] = biological target: T3, His-tagged human HER3 protein (hHER3, ACRO Biosystems Inc., Cat #: ER3-H5223) (human, UniProt P21860 20-643); assay: SPR, Ab captured on Protein A
T3 construct: Bought protein; also called hHER3-His; not shown: His tag
Experimental: (§1) Purified anti-HER3 antibodies was captured on the Protein A chip (Series S Sensor Chip Protein A) for the detection. […] For ISO control, an antibody targeting an irrelevant target protein was used. The flow rate was 30 μL/min, the binding and dissociation time were set to 180 s and 400 s, respectively. The chip was regenerated after the last injection of each titration with a glycine solution (pH 2.0) at 30 μL/min for 30 seconds.
(§2) As a person of ordinary skill in the art would understand, the same method with appropriate adjustments for parameters (e.g., antibody concentration) was performed for each tested antibody.

[2] = biological target: T1, His-tagged dog HER3 protein (dHER3, SEQ …); assay: SPR, Ab captured on Protein A
Experimental: as §1, §2

[3] = biological target: T4, His-tagged monkey HER3 protein (fasHER3, Sino Biological, Inc., Cat #: 90043-K08H) (monkey); assay: SPR, Ab captured on Protein A
T4 construct: Bought protein
Experimental: as §1, §2

[4] = biological target: T5, mouse HER3 on CHO-mHER3 cells (mouse, UniProt Q61526 20-641); assay: flow cytometry, transfected CHO cells
T5 construct: CHO-S cells transfected with mHER3
Experimental: (§3) CHO-hHER3 cells, CHO-mHER3 cells, CHO-fasHER3 cells or CHO-dHER3 cells were transferred to a 96-well plate at a density of 5×10⁴ cells/well respectively. The anti-HER3 antibodies were added to the 96-well plate, and incubated at 4° C. for 30 min.

[5] = biological target: T2, monkey (Macaca fascicularis) HER3 on …; assay: flow cytometry, transfected CHO cells
Experimental: as §3

[6] = biological target: T6, human HER3 on CHO-hHER3 cells (human, UniProt P21860 20-643); assay: flow cytometry, transfected CHO cells
T6 construct: CHO-S cells transfected with hHER3
Experimental: as §3

T5 sequence (Q61526 20-641): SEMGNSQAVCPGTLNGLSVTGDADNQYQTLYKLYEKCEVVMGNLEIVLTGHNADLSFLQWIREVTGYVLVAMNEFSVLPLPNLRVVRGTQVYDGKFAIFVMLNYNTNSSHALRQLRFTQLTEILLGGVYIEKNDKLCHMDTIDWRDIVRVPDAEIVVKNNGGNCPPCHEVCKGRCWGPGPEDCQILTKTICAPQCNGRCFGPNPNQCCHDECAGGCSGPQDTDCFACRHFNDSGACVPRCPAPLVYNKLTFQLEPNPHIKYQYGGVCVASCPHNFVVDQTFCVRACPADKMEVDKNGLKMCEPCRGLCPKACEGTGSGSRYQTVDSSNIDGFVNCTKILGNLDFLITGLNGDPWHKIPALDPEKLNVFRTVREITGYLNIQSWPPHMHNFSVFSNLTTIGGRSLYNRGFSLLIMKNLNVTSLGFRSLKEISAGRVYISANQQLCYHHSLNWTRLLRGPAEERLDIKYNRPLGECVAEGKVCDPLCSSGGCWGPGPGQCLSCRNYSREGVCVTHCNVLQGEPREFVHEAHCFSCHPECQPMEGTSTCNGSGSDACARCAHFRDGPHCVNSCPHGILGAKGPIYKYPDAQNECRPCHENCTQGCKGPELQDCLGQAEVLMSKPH

| Binder | Kd [1] [nM] | koff [1] [s⁻¹] | kon [1] [M⁻¹ s⁻¹] | Kd [2] [nM] | koff [2] [s⁻¹] | kon [2] [M⁻¹ s⁻¹] | Kd [3] [nM] | koff [3] [s⁻¹] | kon [3] [M⁻¹ s⁻¹] | Percentage of Positive Cells [4] [%] | Percentage of Positive Cells [5] [%] | Percentage of Positive Cells [6] [%] | binding result [4] |
| --- | --- | --- | --- | --- | --- | --- | --- | --- | --- | --- | --- | --- | --- |
| B1 | 34.8 | 0.0091 | 261000 | 146 | 0.00809 | 55500 | 50.9 | 0.00834 | 164000 | 15.2 | 65.6 | 66.5 |  |
| B2 | 13.3 | 0.00239 | 179000 | 61.8 | 0.00223 | 36100 | 22.3 | 0.00224 | 100000 | 22.4 | 69 | 71.3 |  |
| B3 | 11.5 | 0.00319 | 277000 | 50.4 | 0.00288 | 57100 | 19.1 | 0.00289 | 152000 | 23 | 69.4 | 70.6 |  |
| B4 | 30 | 0.000637 | 21200 | 33.4 | 0.000418 | 12500 | 31.7 | 0.000582 | 18400 | 3.4 | 72.8 | 74 | no binding |
